Tested on: MS2 coat protein
Experiment: apparent KD of MS2 coat protein; designed switch direction (-1 OFF switch, 1 ON switch): -1; higher = weaker reporter binding
In short: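 RNA switches sharing common flanks were transcribed by stalled E. coli RNA polymerase on Illumina chips. A doubling series of SNAP-549-labelled MS2 coat protein, from 0.7 or 1.5 nM to 3 µM, was applied in Tris-HCl pH 7.5 buffer with KCl, MgCl2, BSA, DTT, tRNA and Tween-20. Each step lasted 0.8–1.5 h at the bottom of the series and 10–20 min at the top. Normalised cluster fluorescence was curve-fitted, giving apparent KD as the per-design median over clusters.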

[1] = Eterna round: R95, input ligand: FMN 200 uM
[2] = Eterna round: R95, input ligand: microRNA oligo, concentration not stated
[3] = Eterna round: R95, input ligand: none
[4] = input ligand: microRNA oligo, concentration not stated

Row | Sequence | apparent KD of MS2 coat protein [1] [nM] | apparent KD of MS2 coat protein [2] [nM] | apparent KD of MS2 coat protein [3] [nM] | apparent KD of MS2 coat protein (input ligand: FMN 200 uM) [nM] | apparent KD of MS2 coat protein (input ligand: none) [nM] | apparent KD of MS2 coat protein [4] [nM]
1 | UGGGUUCUCCAUAGAAGUAACAUGAGGAUCACCCAUGUAGGGCAAGUUUUUUGCUCGUCAUAGGUUGAGGGAUUGGA [JR_SV3TOV1_Sub017] (puzzle: Sensor v3, turn-off variant 1) | 968 | 441 | 634 | – | – | –
2 | UGGUAACAUGAGGAUCACCCAUGUCAGGAUAUCAGUAAGAAGAGAUUAGAGUAGAAUAUGAGAAGGGACUAUAG [Excluse me! 1 - Jieux - Exclusion 1] (puzzle: Exclusion 1) | – | 35.8 | – | – | – | –
3 | UGGUAACAUGAGGAUCACCCAUGUCAGGAUAUCAGUAAGAAUAGAUUAGAGUAGAAGAUGAGAAGGGACUAUAU [Excluse me! 6 - Jieux - Exclusion 1] (puzzle: Exclusion 1) | – | 33.8 | – | – | – | –
4 | UGUAAGGCAGAGGAUAUGGUUACUAGACGAGUACCAGAAGGCUGCACAUGAGGAUCACCCAUGUGAAAUCCACU [Eternabot (L1) Solution 72] (Eterna round: R97, puzzle: Exclusion 6) | – | – | – | 80.7 | 34.7 | –
5 | UGUAUACGAGGAUAUACAUGAGGAUCACCCAUGUGGACGUUGGAGAACGGCCCUCGUAGUAGAAGGCGUAUGAG [Eternabot (L2) Solution 53] (Eterna round: R97, puzzle: Exclusion 3) | – | – | – | 51.3 | 15.4 | –
6 | UGUCAGAUGGUAGGAUAUCCAUAUUGAGUGACCCUUUCAUAACAUGAGGAUCACCCAUGUCGGUGGGAGAAGGGCCGUAUGGUG [salish99_ExNG02_R04_028] (Eterna round: R96, puzzle: Exclusion NG 2) | – | – | – | 53.7 | 33.8 | 21.9
7 | UGUCAGAUGGUAGGAUAUCCCUAUCGCGUGUCCCUUUCCUAACAUGAGGAUCACCCAUGUCGGUGGGAGAAGGGCCGUAUGGUG [salish99_ExNG02_R04_036] (Eterna round: R96, puzzle: Exclusion NG 2) | – | – | – | 15.7 | 15.4 | 13.6
8 | UGUCUUGCAGGAUAUACAUGAGGAUCACCCAUGUAUAUUGAUGAGGGAGAUCUACUAGGUAGAAGGGUAAGAGA [Eternabot (L2) Solution 59] (Eterna round: R97, puzzle: Exclusion 3) | – | – | – | 45 | 17.8 | –
9 | UGUGCUUCAGGAUAUACGUGACGACCGUGAGGUCGAAGGUUACAUGAGGAUCACCCAUGUAGAAGGGAAGUACU [Mat - Exclusion 2 - JL Mod - D29] (Eterna round: R97, puzzle: Exclusion 2) | – | – | – | 66.8 | 33 | –
10 | UGUGUGUCAGGAUAUGUGUGUGUGUGUGAAAGCGCGCGCGCGCAGAAGGGACAUGAGGAUCACCCAUGUGCGCG [-35.3, -34.3 kcal, A 20%, 6bis-6] (Eterna round: R97, puzzle: Exclusion 4) | – | – | – | 484 | 220 | –
11 | UGUUAGAUGGUAGGAUAUCCAUAUCGAGUGACCCUUUCAUAACAUGAGGAUCACCCAUGUCGGUGGGAGAAGGGCCGUAUGGUG [salish99_ExNG02_R04_031] (Eterna round: R96, puzzle: Exclusion NG 2) | – | – | – | 18 | 22.7 | 15.8
12 | UGUUGUCGCGUAGGAUAUGAGGAUCACCCAUAUAAAGGAUAUGAAAAGAAGGUUCUGAGGAUUACCCAGAAGGACGGGACAACU [pwkr exNG2 2xF5 2xFMN.17] (Eterna round: R96, puzzle: Exclusion NG 2) | – | – | – | 207 | 48.7 | 35
13 | UGUUGUUACGCAGGAUAUGAGGAUCACCCAUAGAAGGAUAACGAAAGUGAAGGUCUGAGGAUUACCCAGAAGGGCGGGUUAACA [pwkr exNG2 2xF5 2xFMN.2] (Eterna round: R96, puzzle: Exclusion NG 2) | – | – | – | 294 | 92 | 74.2
14 | UGUUGUUACGCAGGAUAUUGUCAACAGGCAGUAGGAUAUCCGAAAGGAGAAGGACCGCCAACAGGCGAGAAGGGCGGGUUAACA [pwkr exNG2 2xF7 2xFMN.7] (Eterna round: R96, puzzle: Exclusion NG 2) | – | – | – | 369 | 323 | 167
15 | UGUUGUUACGUAGGAUAUCCACCAACAGGUGGAAGGAUAUGGAAACAGAAGGUUCGCCAACAGGCGGAGAAGGACGGGUUAACA [pwkr exNG2 2xF7 2xFMN.22] (Eterna round: R96, puzzle: Exclusion NG 2) | – | – | – | 42.5 | 32.3 | 11.5
16 | UUAAAUCAUGUAGGAUAUGCGUGGCGAAGCUAUGCAGAAGGACAUGAGGAUCACCCAUGUUCUAGCGUCUGCGUACAGAUGCUA [Mat - Exclusion NG 1 - Mod of JL - D76] (Eterna round: R96, puzzle: Exclusion NG 1) | – | – | – | 359 | 38.3 | 26.9
17 | UUAAAUCAUGUAGGAUAUGCGUGGGAAAACUAUGCAGAAGGACAUGAGGAUCACCCAUGUGCUUCCGUCUGAGAACAGACGGUA [Mat - Exclusion NG 1 - Mod of JL - D15] (Eterna round: R96, puzzle: Exclusion NG 1) | – | – | – | 226 | 87.8 | 76.1
18 | UUAAGUUCAGGAUAUGAUGAAUUAAACAUGAGGAUCACCCAUGUAGAUCCUGAAUUAACAUCAGAAGGGAAUAUUU [JL-ex5-4.52 Brourd mod] (Eterna round: R97, puzzle: Exclusion 5) | – | – | – | 24.4 | 13.5 | –
19 | UUAAUAAUGUAAGGAUAUGCGUGGCGAAGCUAUGCAGAAGGUACAUGAGGAUCACCCAUGUGGUCCGUCUGCGUACAGAUGGAA [JL Eng1 1.08 mod] (Eterna round: R96, puzzle: Exclusion NG 1) | – | – | – | 756 | 365 | 319
20 | UUAAUACAUGAGGAUCACCCAUGUCAGGAUAUCCGUAUUUCUUAUAUAUAUUUCUAUCGGAGAAGGGACACAUU [lam1] (Eterna round: R97, puzzle: Exclusion 1) | – | – | – | 50.9 | 45.4 | –
21 | UUAAUGUCAGGAUAUGCUUAAUAUAUUUUAUUAUAAUAUAUACAUGAGGAUCACCCAUGUAGAAGGGACAUUAU [LRO-Excl2-04-Fireball XL5] (Eterna round: R97, puzzle: Exclusion 2) | – | – | – | 26.4 | 39.1 | –
22 | UUAAUUAAUAAUUAAGAUCAUUACAUGAGGAUCACCCAUGUCGAGGAUAUCAGCUCGAUUAGAGCUGAGAAGGCGACAAAUUAU [ExNG3/13-B1] (Eterna round: R96, puzzle: Exclusion NG 3) | – | – | – | 1060 | 579 | 644
23 | UUAAUUAGCAGACUAAUACCUCACAUGAGGAUCACCCAUGUGCAGGAUAUCAGCUCGUGUAGAGCUGAGAAGGGCACUGUCUGC [ExNG3/12-A3] (Eterna round: R96, puzzle: Exclusion NG 3) | – | – | – | 17 | 10.8 | 10.2
24 | UUAAUUAGCAGACUAAUACCUCACAUGAGGAUCACCCAUGUGCAGGAUAUCAGCUCGUUUAGAGCUGAGAAGGGCACUGUCUGC [ExNG3/12-A2] (Eterna round: R96, puzzle: Exclusion NG 3) | – | – | – | 17.9 | 11.3 | 8.72
25 | UUAAUUUAAGGGAUAGAUCAUUACAUGAGGAUCACCCAUGUUGAGGAUAUCAGCUCGAUUAGAGCUGAGAAGGCAACAAUAGGG [ExNG3/14-A1] (Eterna round: R96, puzzle: Exclusion NG 3) | – | – | – | 46 | 63.8 | 47.1
26 | UUACAAUGUCGCUUACAAGCUUUUUGCUCGUCUUAUAUUACAUGAGGAUCACCCAUGUAGAUCAUGUGGCGUGACCU [JL ViennaUCT Maridi mod 9] (puzzle: Sensor v3, turn-off variant 2) | 165 | 23.3 | 208 | – | – | –
27 | UUACCAUGCCGCCUAAUAGCUUUUUGCUCGUCUUAUAUUACAUGAGGAUCACCCAUGUAGAUCAUGUGGCGUGACCU [JL ViennaUCT Maridi mod 2] (puzzle: Sensor v3, turn-off variant 2) | 126 | 39.6 | 121 | – | – | –
28 | UUACGGUAGAUCGUGGCUUUUUGCUCGUCUUGUGCUACAACAUGAGGAUCACCCAUGUAGAGGUGAUCUAUUGUAUU [Grok-var2-20 mod JAL] (puzzle: Sensor v3, turn-off variant 2) | 51.9 | 17.8 | 74.5 | – | – | –

Reference: the supplement of paper PMC9170038
